Assay results from paper doi:10.1101/2021.04.26.441525 (bioRxiv, 2021).

Target: the molecule itself
Assay: crystal structure

B1: BT_1526 myo-inositol phosphate synthase (MIPS) of Bacteroides thetaiotaomicron VPI-5482 (enzyme, UniProt Q8A7J8 1-429, looked up)
chain: MKQEIKPATGRLGVLVVGVGGAVATTMIVGTLASRKGLAKPIGSITQLATMRMENNEEKLIKDVVPLTDLNDIVFGGWDIFPDNAYEAAMYAEVLKEKDLNGVKDELEAIKPMPAAFDHNWAKRLNGTHIKKAATRWEMVEQLRQDIRDFKAANNCERVVVLWAASTEIYIPLSDEHMSLAALEKAMKDNNTEVISPSMCYAYAAIAEDAPFVMGAPNLCVDTPAMWEFSKQKNVPISGKDFKSGQTLMKTVLAPMFKTRMLGVNGWFSTNILGNRDGEVLDDPDNFKTKEVSKLSVIDTIFEPEKYPDLYGDVYHKVRINYYPPRKDNKEAWDNIDIFGWMGYPMEIKVNFLCRDSILAAPIALDLVLFSDLAMRAGMCGIQTWLSFFCKSPMHDFEHQPEHDLFTQWRMVKQTLRNMIGEKEPDYLA
  stoichiometry N: 4
